This is an account of results in publication PMC8786727, “Oligomerization of the FliF Domains Suggests a Coordinated Assembly of the Bacterial Flagellum MS Ring” (Frontiers in Microbiology, 2021).

As usually defined, the stoichiometry N is a count of units in the complex or per binding partner.

Data set [1] concerns the molecule itself. Briefly: cryo-EM 2D classification; protein at 10 mg/ml in 50 mM Hepes pH 9.0, 150 mM NaCl; symmetry read from top-view 2D classes; no 3D structure.
Data set [2] deals with the molecule itself. Nature of the data set: SEC; purified protein on Superdex 200 10/300 or Superose 6 10/300; 50 mM Hepes pH 8.0 or 9.0, 500 mM NaCl; oligomeric state from the elution volume. (In general: SEC sorts molecules by how far they enter the pores of the column.)

B1: S. Typhimurium FliF RBM1-RBM2-RBM3 (FliF_(50–438)) (domain or fragment)
chain: DYRTLFSNLSDQDGGAIVAQLTQMNIPYRFANGSGAIEVPADKVHELRLRLAQQGLPKGGAVGFELLDQEKFGISQFSEQVNYQRALEGELARTIETLGPVKSARVHLAMPKPSLFVREQKSPSASVTVTLEPGRALDEGQISAVVHLVSSAVAGLPPGNVTLVDQSGHLLTQSNTSGRDLNDAQLKFANDVESRIQRRIEAILSPIVGNGNVHAQVTAQLDFANKEQTEEHYSPNGDASKATLRSRQLNISEQVGAGYPGGVPGALSNQPAPPNEAPIATPPTNQQNAQNTPQTSTSTNSNSAGPRSTQRNETSNYEVDRTIRHTKMNVGDIERLSVAVVVNYKTLADGKPLPLTADQMKQIEDLTREAMGFSDKRGDTLNVVNSPFS
notes: FliF (flagellar M-ring protein), Salmonella enterica serovar Typhimurium, residues 50-438 (RBM1, RBM2 and RBM3, without the two trans-membrane helices); full length is 1-560; Synthetic gene in pET-28a; 33-fold symmetry seen in top-view cryo-EM 2D classes; the rings also stick together (~10 MDa by SEC-MALS); also called StFliF_(50–438); periplasmic region of FliF; source: E. coli BL21 DE3, …
Take B1: the “stoichiometry N” value in data set [1] came out at 33.

B2: S. Typhimurium FliF RBM2 (FliF_(124–229)) (domain or fragment)
chain: SQFSEQVNYQRALEGELARTIETLGPVKSARVHLAMPKPSLFVREQKSPSASVTVTLEPGRALDEGQISAVVHLVSSAVAGLPPGNVTLVDQSGHLLTQSNTSGRD
notes: FliF, Salmonella enterica serovar Typhimurium, residues 124-229 (RBM2 and linker L2); Made by site-directed mutagenesis from the FliF 50-438 pET-28a construct; also called RBM2 + L2; source: E. coli BL21 DE3, purified (Ni-NTA, SEC on Superdex 200); copies: 23
On to B2, for which the “stoichiometry N” value in data set [1] turned out to be 23.

B3: S. Typhimurium FliF RBM3 (FliF_(231–438)) (domain or fragment)
chain: NDAQLKFANDVESRIQRRIEAILSPIVGNGNVHAQVTAQLDFANKEQTEEHYSPNGDASKATLRSRQLNISEQVGAGYPGGVPGALSNQPAPPNEAPIATPPTNQQNAQNTPQTSTSTNSNSAGPRSTQRNETSNYEVDRTIRHTKMNVGDIERLSVAVVVNYKTLADGKPLPLTADQMKQIEDLTREAMGFSDKRGDTLNVVNSPFS
notes: FliF, Salmonella enterica serovar Typhimurium, residues 231-438 (RBM3); Made by site-directed mutagenesis from the FliF 50-438 pET-28a construct; Forms rings; the number of subunits of this construct was not measured; source: E. coli BL21 DE3, purified (Ni-NTA, SEC on Superose 6)
As for B3, in data set [2], the binding result is recorded as “binds”.
